Assay results: article PMC9168836, “Clamping of DNA shuts the condensin neck gate” (Proceedings of the National Academy of Sciences of the …, 2021)

Tests used:
[1] = target: Smc2;Smc4;Brn1 (kleisin);Ycs4 (HAWK) (Saccharomyces cerevisiae;Saccharomyces …, UniProt P38989;Q12267;P38170;Q06156 1-1170;1-1418;1-754;1-1176, |||); test: cryo-EM structure; condensin tetramer; ADP.BeF3, Mg2+; clamped head module Form I, 2.95 A; 30 mM Tris/HCl pH 7.5, 60 mM NaCl, 1 mM TCEP, 2 mM MgCl2, 5 mM ADP, 1 mM BeSO4, 10 mM NaF; 30 min at room temperature; 1-2 uM 80-bp DNA or 100 nM circular DNA; conditions: protein: recombinant;recombinant;recombinant;recombinant; copies: 1;1;1;1; blunt
[2] = target: Ycg1 (HAWK);Brn1 (kleisin) (Saccharomyces cerevisiae;Saccharomyces …, UniProt Q06680;P38170 1-1035;1-754, |); test: cryo-EM structure; Ycg1-Brn1 part of the condensin pentamer; ADP.BeF3, Mg2+ in sample; 3.2 A; 30 mM Tris/HCl pH 7.5, 60 mM NaCl, 1 mM TCEP, 2 mM MgCl2, 5 mM ADP, 1 mM BeSO4, 10 mM NaF; 30 min at room temperature; 1-2 uM 80-bp DNA or 100 nM circular DNA; conditions: protein: recombinant;recombinant; tags: see P1;see P1; copies: 1;1; blunt
[3] = target: Smc2;Smc4;Brn1 (kleisin);Ycs4 (HAWK);Ycg1 (HAWK) (Saccharomyces cerevisiae;Saccharomyces …, UniProt P38989;Q12267;P38170;Q06156;Q06680 1-1170;1-1418;1-754;1-1176;1-1035, ||||); test: cryo-EM structure; condensin pentamer; ADP.BeF3, Mg2+; clamped head module map EMD-13785, Ycg1 not on head module; 30 mM Tris/HCl pH 7.5, 60 mM NaCl, 1 mM TCEP, 2 mM MgCl2, 5 mM ADP, 1 mM BeSO4, 10 mM NaF; 30 min at room temperature; 1-2 uM 80-bp DNA or 100 nM circular DNA; conditions: protein: recombinant;recombinant;recombinant;recombinant;recombinant; copies: 1;1;1;1;1; blunt

Measured: binding result

Sequence of Ycg1 (HAWK);Brn1 (kleisin) (Q06680 whole entry, chain 1 of 2): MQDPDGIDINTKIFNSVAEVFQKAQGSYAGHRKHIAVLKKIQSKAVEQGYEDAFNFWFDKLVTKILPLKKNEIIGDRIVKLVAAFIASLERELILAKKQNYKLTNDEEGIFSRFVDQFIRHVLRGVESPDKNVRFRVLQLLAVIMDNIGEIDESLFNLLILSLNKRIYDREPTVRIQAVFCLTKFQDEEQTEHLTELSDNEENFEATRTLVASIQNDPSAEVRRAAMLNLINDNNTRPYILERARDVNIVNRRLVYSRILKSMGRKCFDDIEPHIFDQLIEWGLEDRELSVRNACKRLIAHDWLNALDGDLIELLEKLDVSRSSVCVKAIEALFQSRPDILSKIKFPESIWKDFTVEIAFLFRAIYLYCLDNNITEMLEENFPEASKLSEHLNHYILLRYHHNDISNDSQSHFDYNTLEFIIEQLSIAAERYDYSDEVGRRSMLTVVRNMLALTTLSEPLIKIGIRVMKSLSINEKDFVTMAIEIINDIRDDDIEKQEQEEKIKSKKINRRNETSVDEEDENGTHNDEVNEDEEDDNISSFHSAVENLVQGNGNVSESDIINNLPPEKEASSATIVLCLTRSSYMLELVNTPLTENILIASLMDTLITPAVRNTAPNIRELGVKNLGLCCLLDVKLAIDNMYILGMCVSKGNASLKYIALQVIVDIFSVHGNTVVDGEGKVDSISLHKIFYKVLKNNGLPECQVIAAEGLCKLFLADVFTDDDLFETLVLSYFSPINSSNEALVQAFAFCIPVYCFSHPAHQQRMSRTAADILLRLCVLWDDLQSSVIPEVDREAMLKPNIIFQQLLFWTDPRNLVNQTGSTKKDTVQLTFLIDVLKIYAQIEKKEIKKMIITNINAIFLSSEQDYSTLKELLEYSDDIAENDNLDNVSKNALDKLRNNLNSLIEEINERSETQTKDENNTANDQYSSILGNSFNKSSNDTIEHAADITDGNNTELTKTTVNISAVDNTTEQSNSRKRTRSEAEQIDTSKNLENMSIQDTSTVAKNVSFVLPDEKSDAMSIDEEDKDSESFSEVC
Sequence of Ycg1 (HAWK);Brn1 (kleisin) (P38170 whole entry, chain 2 of 2): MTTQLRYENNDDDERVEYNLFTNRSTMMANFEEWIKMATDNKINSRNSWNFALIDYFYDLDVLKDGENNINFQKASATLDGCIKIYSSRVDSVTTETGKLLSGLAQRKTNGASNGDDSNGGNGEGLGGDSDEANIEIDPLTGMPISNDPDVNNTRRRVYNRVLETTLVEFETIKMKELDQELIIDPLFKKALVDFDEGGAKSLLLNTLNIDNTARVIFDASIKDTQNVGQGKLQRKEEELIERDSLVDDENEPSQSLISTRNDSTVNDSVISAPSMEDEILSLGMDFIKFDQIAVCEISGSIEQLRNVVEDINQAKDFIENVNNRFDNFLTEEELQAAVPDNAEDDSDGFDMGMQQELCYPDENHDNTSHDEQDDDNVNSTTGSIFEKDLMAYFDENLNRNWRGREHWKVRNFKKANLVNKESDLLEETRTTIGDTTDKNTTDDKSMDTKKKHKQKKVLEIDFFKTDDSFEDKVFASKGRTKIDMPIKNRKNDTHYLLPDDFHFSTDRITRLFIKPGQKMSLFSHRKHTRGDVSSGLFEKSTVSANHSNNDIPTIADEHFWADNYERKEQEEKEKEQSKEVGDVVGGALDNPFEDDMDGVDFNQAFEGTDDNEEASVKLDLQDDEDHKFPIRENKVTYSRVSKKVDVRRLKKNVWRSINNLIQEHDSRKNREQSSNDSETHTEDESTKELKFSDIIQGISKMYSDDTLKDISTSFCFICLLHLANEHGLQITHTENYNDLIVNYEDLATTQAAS

B1: 80-bp dsDNA (dsDNA)
DNA 1: GAATTCGGTGCGCATAATGTATAATAAGATAAATAAGCTTAAGTTCTTCCGATGCATAATAACATAATACGTGACTTTAC
DNA 2: GTAAAGTCACGTATTATGTTATTATGCATCGGAAGAACTTAAGCTTATTTATCTTATTATACATTATGCGCACCGAATTC
binds: all assays above
